Assay results as given in IntAct's records for PubMed 9756887.

B1: Focal adhesion kinase 1 (Homo sapiens), Q05397 (parent)
chain: MAAAYLDPNLNHTPNSSTKTHLGTGMERSPGAMERVLKVFHYFESNSEPTTWASIIRHGDATDVRGIIQKIVDSHKVKHVACYGFRLSHLRSEEVHWLHVDMGVSSVREKYELAHPPEEWKYELRIRYLPKGFLNQFTEDKPTLNFFYQQVKSDYMLEIADQVDQEIALKLGCLEIRRSYWEMRGNALEKKSNYEVLEKDVGLKRFFPKSLLDSVKAKTLRKLIQQTFRQFANLNREESILKFFEILSPVYRFDKECFKCALGSSWIISVELAIGPEEGISYLTDKGCNPTHLADFTQVQTIQYSNSEDKDRKGMLQLKIAGAPEPLTVTAPSLTIAENMADLIDGYCRLVNGTSQSFIIRPQKEGERALPSIPKLANSEKQGMRTHAVSVSETDDYAEIIDEEDTYTMPSTRDYEIQRERIELGRCIGEGQFGDVHQGIYMSPENPALAVAIKTCKNCTSDSVREKFLQEALTMRQFDHPHIVKLIGVITENPVWIIMELCTLGELRSFLQVRKYSLDLASLILYAYQLSTALAYLESKRFVHRDIAARNVLVSSNDCVKLGDFGLSRYMEDSTYYKASKGKLPIKWMAPESINFRRFTSASDVWMFGVCMWEILMHGVKPFQGVKNNDVIGRIENGERLPMPPNCPPTLYSLMTKCWAYDPSRRPRFTELKAQLSTILEEEKAQQEERMRMESRRQATVSWDSGGSDEAPPKPSRPGYPSPRSSEGFYPSPQHMVQTNHYQVSGYPGSHGITAMAGSIYPGQASLLDQTDSWNHRPQEIAMWQPNVEDSTVLDLRGIGQVLPTHLMEERLIRQQQEMEEDQRWLEKEERFLKPDVRLSRGSIDREDGSLQGPIGNQHIYQPVGKPDPAAPPKKPPRPGAPGHLGSLASLSSPADSYNEGVKLQPQEISPPPTANLDRSNDKVYENVTGLVKAVIEMSSKIQPAPPEEYVPMVKEVGLALRTLLATVDETIPLLPASTHREIEMAQKLLNSDLGELINKMKLAQQYVMTSLQQEYKKQMLTAAHALAVDAKNLLDVIDQARLKMLGQTRPH

Tests used:
[1] = variants of: B1; settings: with paxi_human PXN
[2] = variants of: B1; settings: with tgfi1_mouse Tgfb1i1, Q62219
tgfi1_mouse Tgfb1i1, Q62219, sequence (Q62219 whole entry): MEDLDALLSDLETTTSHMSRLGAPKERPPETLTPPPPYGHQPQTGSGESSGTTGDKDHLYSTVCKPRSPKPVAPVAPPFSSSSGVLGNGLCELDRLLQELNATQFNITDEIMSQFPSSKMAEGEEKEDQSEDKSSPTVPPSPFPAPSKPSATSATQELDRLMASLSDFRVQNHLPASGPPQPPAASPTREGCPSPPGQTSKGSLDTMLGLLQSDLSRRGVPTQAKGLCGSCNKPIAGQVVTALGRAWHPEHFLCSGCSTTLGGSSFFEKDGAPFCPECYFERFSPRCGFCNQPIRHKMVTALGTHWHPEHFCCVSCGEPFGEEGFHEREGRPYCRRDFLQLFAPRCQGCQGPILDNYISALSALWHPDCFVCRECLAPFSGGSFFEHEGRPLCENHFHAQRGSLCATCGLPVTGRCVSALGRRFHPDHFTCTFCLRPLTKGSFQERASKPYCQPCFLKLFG

Variant | effect of a mutation on the interaction [1] | effect of a mutation on the interaction [2]
L1034S | disrupting interaction | disrupting interaction
V928G | disrupting interaction | disrupting interaction
